# Results published in patent US20250282881A1 (SHANGHAI EPIMAB BIOTHERAPEUTICS, published 2025).
# T1: recombinant human OX40/His fusion protein (Novoprotein, CB17) (human, UniProt P43489 29-216)
# T1 construct: Bought protein
# T1 sequence: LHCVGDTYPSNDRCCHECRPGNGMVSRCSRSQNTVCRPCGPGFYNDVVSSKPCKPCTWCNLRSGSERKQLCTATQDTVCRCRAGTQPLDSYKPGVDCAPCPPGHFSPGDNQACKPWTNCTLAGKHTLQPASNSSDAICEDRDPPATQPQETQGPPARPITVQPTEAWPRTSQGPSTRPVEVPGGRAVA
# T2: human OX40 on cells (CHO-K1-hOX40, CHO-OX40, Jurkat-OX40 reporter cells) (human, UniProt P43489 29-277)
# T2 construct: also called human OX40-transfected CHO cell; CD134
# T2 sequence: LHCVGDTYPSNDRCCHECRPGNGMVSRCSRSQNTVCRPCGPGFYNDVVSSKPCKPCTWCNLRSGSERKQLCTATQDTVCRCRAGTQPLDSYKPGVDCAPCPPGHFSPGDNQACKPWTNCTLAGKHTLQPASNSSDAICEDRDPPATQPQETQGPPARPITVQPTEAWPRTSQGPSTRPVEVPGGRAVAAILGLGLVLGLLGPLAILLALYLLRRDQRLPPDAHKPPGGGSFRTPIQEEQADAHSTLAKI
# Columns and labels:
# [1] = target: T1, recombinant human OX40/His fusion …; assay: BLI (Octet RED96), antibody on AHC sensor, OX40/His as analyte, test group 1
# Method: (§1) All 17 antibodies in Table 4 were expressed by transient transfection of HEK293 cell, purified by Protein A chromatography, and assayed for and ranked by dissociation rate constant (koff). Briefly, antibodies binding affinities and kinetics were characterized by Octet® RED96 biolayer interferometry (Pall FortéBio LLC). Antibodies were captured by Anti-hIgG Fc Capture (AHC) Biosensors (Pall) at a concentration of 100 nM for 120 seconds. After that, sensors were dipped into running buffer (1× pH 7.2 PBS, 0.05% Tween 20, 0.1% BSA) for 60 seconds to check the baseline, then dipped into recombinant human OX40/His fusion protein (Novoprotein, CB17) at assigned concentration for 200 seconds to measure binding, followed by dipped into running buffer for 600 seconds for dissociation. The assay was conducted in four test groups (as listed in Table 5) all containing the EM1007-044c chimeric antibody as the basis for normalization. The association and dissociation curves were fitted to a 1:1 Langmuir binding model using ForteBio Data Analysis software (Pall) to obtain the off-rate constants as shown in Table 5 below. The off-rate of each antibody was compared to that of the EM1007-mAb044c chimeric antibody in the same test group obtained in parallel to produce the corresponding off-rate ratio, serving as a normalized index. The normalized index of an antibody indicates higher affinity for human OX40.
# [2] = target: T1, recombinant human OX40/His fusion …; assay: BLI (Octet RED96), antibody on AHC sensor, OX40/His as analyte, test group 4 (the reference itself)
# Method: as §1, with “The normalized index of an antibody indicates higher affinity for human OX40.” left out
# [3] = target: T2, human OX40 on cells (CHO-K1-hOX40, …); assay: FACS on CHO-K1-hOX40 cells
# Method: (§2) The purified chimeric antibody was designated EM1007-44c. Binding activity to human or Cyno OX40 on the cell surface was assessed by FACS. Briefly, 5×10⁵ cells were seeded into each well of a 96-well plate (Corning, #3799). Cells were centrifuged at 400 g for 5 minutes and supernatants were discarded. For each well, 100 μl of 3× serial dilution of antibody starting from 100 nM was then added and mixed with the cells. After 60 minutes of 4° C. incubation, plates were washed to remove excess antibody. […] After another round of centrifugation and washing, cells were resuspended in FACS buffer for reading on a CytoFLEX Flow Cytometer (Beckman Coulter). Median Fluorescence Intensity (MFI) readouts were plotted against antibody concentration and analyzed with GraphPad Prism 8.0. The ability of OX40 to activate downstream signaling was detected in a Jurkat-OX40-NF-κB luciferase assay. Briefly, high binding plates (Corning, #3361) were coated with 3× serial dilution of EM1007-44c starting from 100 nM at 4° C. overnight, washed, then seeded with 1×10⁵ cells per well of OX40-NF-κB reporter and incubate at 37° C. for 6 hours. At the end of incubation, ONE-Glo™ luminescence assay kit (Promega, Cat. #E6130) reagents were prepared and added according to the manufacturer's instructions. Plates were read for luminescence signals on Varioskan™ LUX microplate reader (ThermoFisher Scientific).
# [4] = target: T1, recombinant human OX40/His fusion …; assay: BLI (Octet RED96), antibody on AHC sensor, OX40/His as analyte, test group 2
# Method: as §1
# [5] = target: T1, recombinant human OX40/His fusion …; assay: BLI (Octet RED96), antibody on AHC sensor, OX40/His as analyte, test group 3 (the reference itself)
# Method: as §1, with “The normalized index of an antibody indicates higher affinity for human OX40.” left out
# [6] = target: T2, human OX40 on cells (CHO-K1-hOX40, …); assay: cell-based or functional assay
# [7] = target: T1, recombinant human OX40/His fusion …; assay: BLI (Octet RED96), antibody on AHC sensor, OX40/His as analyte, test group 1 (the reference itself)
# Method: as §1, with “The normalized index of an antibody indicates higher affinity for human OX40.” left out
# [8] = target: T3, cyno OX40 on cells (CHO-K1-cOX40) (cyno); assay: FACS on CHO-K1-cOX40 cells
# T3 construct: whole, on cells; also called Cyno OX40 on the cell surface
# Method: as §2
# [9] = target: T1, recombinant human OX40/His fusion …; assay: BLI (Octet RED96), antibody on AHC sensor, OX40/His as analyte, test group 2 (the reference itself)
# Method: as §1, with “The normalized index of an antibody indicates higher affinity for human OX40.” left out
# [10] = target: T1, recombinant human OX40/His fusion …; assay: BLI (Octet RED96), antibody on AHC sensor, OX40/His as analyte, test group 3
# Method: as §1
# [11] = target: T1, recombinant human OX40/His fusion …; assay: BLI (Octet RED96), antibody on AHC sensor, OX40/His as analyte, test group 4
# Method: as §1
# [12] = target: T4, human PD-L1 on cells (CHO-PD-L1, CHO-PD-L1-OS8) (human, UniProt Q9NZQ7 19-290); assay: cell-based receptor blocking assay, FACS: antibody against PD-1-mFc binding to CHO-PD-L1 cells, anti-mouse IgG detection
# T4 construct: whole, on cells; also called PD-L1 over-expressing cells; CD274
# Method: Blocking of PD-1/PD-L1 binding was assessed in a cell based receptor blocking assay (RBA), 100 μl of 2×10⁵ cells/well of CHO-PD-L1 cells were added to a 96-well round-bottomed plate (Corning, Cat #3799), 50 μl serial diluted of antibody at 0.016 nM to 50 nM and 50 μl of 50 μg/ml PD-1-mFc (Novoprotein, #C754) were added to each well, mixed gently then incubated at 4° C. for 1 hour. The cells were washed and stained by Alexa Fluor® 647 anti-mouse IgG (1:500, Jackson ImmunoResearch, #115-606-008). Signals were read out by FACS and curves were fitted by GraphPad Prism 8.0.
# [13] = target: recombinant cyno PD-L1-his protein (cyno, UniProt G7PSE7 19-239); assay: BLI (Octet Red96), FIT1014-20a on AHC sensor, cyno PD-L1-his as analyte
# Method: (§3) The PD-L1 binding activities of FIT1014-20a were detected by biolayer interferometry using an Octet® Red sensing device (ForteBio, Red96). […] The association and dissociation curves were fitted to a 1:1 Langmuir binding model using FortéBio Data Analysis software (Pall) to produce kinetic rate constants Kon and Koff. The equilibrium dissociation constant KD (M) of the reaction between antibodies and related target proteins was then calculated by KD=koff/kon.
# [14] = target: T5, recombinant human PD-L1/His fusion protein (Novoprotein, Cat. No. C315) (human, UniProt Q9NZQ7 19-239); assay: BLI (Octet Red96), FIT1014-20a on AHC sensor, human PD-L1-his as analyte
# T5 construct: also called recombinant human PD-L1-his protein
# Method: as §3
# [15] = target: T4, human PD-L1 on cells (CHO-PD-L1, …); assay: FACS on CHO-PD-L1 cells, Alexa Fluor 647 anti-human IgG, MFI
# Method: Cell binding affinity of PD-L1/OX40 antibodies were measured against CHO (ATCC, #CCL-61) overexpressing human PD-L1 (CHO-PD-L1) and CHO overexpressing OX40 (CHO-OX40), respectively. Briefly, 5×10⁵ cells were seeded into each well of a 96-well plate (Corning, #3799). Cells were centrifuged at 400 g for 5 minutes and supernatants were discarded. For each well, 100 μl of 3× serial dilution of antibodies starting from 100 nM were then added and mixed with the cells. After 60 minutes of 4° C. incubation, plates were washed several times to remove excess antibodies. […] After another round of centrifugation and washing, cells were resuspended in FACS buffer for reading on a CytoFLEX Flow Cytometer (Beckman Coulter). Median Fluorescence Intensity (MFI) readouts were plotted against antibody concentration and analyzed with GraphPad Prism 8.0.
# [16] = target: Cyno OX40 (protein analyte in BLI, Table 10) (cyno); assay: BLI (Octet Red96), FIT1014-20a on AHC sensor, cyno OX40 as analyte
# Sequence of recombinant cyno PD-L1-his protein (G7PSE7 entry or part of it): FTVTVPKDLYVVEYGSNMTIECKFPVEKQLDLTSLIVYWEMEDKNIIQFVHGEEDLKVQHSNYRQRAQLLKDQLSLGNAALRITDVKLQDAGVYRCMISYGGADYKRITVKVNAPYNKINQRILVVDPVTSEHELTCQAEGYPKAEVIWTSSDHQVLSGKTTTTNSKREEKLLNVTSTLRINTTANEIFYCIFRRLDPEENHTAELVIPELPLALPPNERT
# T5 sequence (Q9NZQ7 19-239 limits assumed): as the sequence (G7PSE7 entry or part of it) above, with T33A, S34A, N62S, Q68R, R82Q, L173F, A185T, I192T, L215H counted along it
# T4 sequence (Q9NZQ7 19-290): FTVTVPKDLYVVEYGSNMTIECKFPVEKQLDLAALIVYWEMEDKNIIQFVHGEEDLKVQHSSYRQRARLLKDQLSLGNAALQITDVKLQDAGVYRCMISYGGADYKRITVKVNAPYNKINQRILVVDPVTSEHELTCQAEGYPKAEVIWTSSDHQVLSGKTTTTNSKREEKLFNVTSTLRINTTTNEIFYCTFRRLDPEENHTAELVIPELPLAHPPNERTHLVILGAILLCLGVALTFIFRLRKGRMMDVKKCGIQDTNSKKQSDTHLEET
binder,measurement,setting,value
"EM1007-44c (antibody, human IgG1, V domains shown, also called EM1007-mAb044c; EM1007-044c) VH: QVQLQQSGPELVKPGASVTISCKASGHAFSSSWMNWVKQRPGKGLEWIGRIYPGDEITNYNGKFKDKATLTADKSSSTAYMQLSSLTFEDSAVYFCARDLLMPYWGQGTLVTVSA VL: DIVMTQTAFSNPVTLGTSASISCRSSKSLLYSNGITYLYWYLQKPGQSPHLLIYQMSNLAPGVPDRFSSSGSGTDFTLRISRVEAEDVGIYYCAQNLELPFTFGSGTKLEIK",koff,[1],0.000336 s⁻¹
same,Normalized Index (off-rate ratio to EM1007-mAb044c),[2],100%
same,EC50,[3],2.6 nM
same,koff,[4],0.000318 s⁻¹
same,Normalized Index (off-rate ratio to EM1007-mAb044c),[5],100%
same,"OX40-Jurkat-NF-κB-Reporter, EC50",[6],0.43 nM
same,"OX40-Jurkat-NF-κB-Reporter, Maximal fold change",[6],1.52 fold
same,Normalized Index (off-rate ratio to EM1007-mAb044c),[7],100%
same,EC50,[8],2.11 nM
same,Normalized Index (off-rate ratio to EM1007-mAb044c),[9],100%
same,koff,[10],0.000305 s⁻¹
same,koff,[11],0.000279 s⁻¹
"FIT1014-20a (bispecific antibody, human IgG1, kappa, L234A L235A, Hexamer of three component polypeptide chains (two of each); outer Fab anti-PD-L1 (HuEM0005-86-64), inner Fab anti-OX40 (HuEM1007-44-16); also called FIT1014-20a (YTE); PD-L1/OX40 FIT-Ig) chain 1: DIQMTQSPSSVSASVGDRVTITCKASQDVGTAVAWYQQKPGKAPKLLIYWASTRHTGVPSRFSGSGSGTDFTLTISSLQPEDFATYYCQQYSSYPYTFGGGTKVEIKRTVAAPSVFIFPPSDEQLKSGTASVVCLLNNFYPREAKVQWKVDNALQSGNSQESVTEQDSKDSTYSLSSTLTLSKADYEKHKVYACEVTHQGLSSPVTKSFNRGECEVQLQQSGAEVKKPGSSVKVSCKASGHAFSSSWMNWVKQRPGKGLEWIGRIYPGDEITNYNAKFKDKATLTADKSTSTAYMELSSLRSEDTAVYYCARDLLMPYWGQGTLVTVSSASTKGPSVFPLAPSSKSTSGGTAALGCLVKDYFPEPVTVSWNSGALTSGVHTFPAVLQSSGLYSLSSVVTVPSSSLGTQTYICNVNHKPSNTKVDKKVEPKSCDKTHTCPPCPAPEAAGGPSVFLFPPKPKDTLYITREPEVTCVVVDVSHEDPEVKFNWYVDGVEVHNAKTKPREEQYNSTYRVVSVLTVLHQDWLNGKEYKCKVSNKALPAPIEKTISKAKGQPREPQVYTLPPSREEMTKNQVSLTCLVKGFYPSDIAVEWESNGQPENNYKTTPPVLDSDGSFFLYSKLTVDKSRWQQGNVFSCSVMHEALHNHYTQKSLSLSPGK chain 2: EVQLVQSGSELKKPGASVKVSCKASGYTFTTYGINWVRQAPGQGLEWMGYIYIGNAYTEYNEKFKGRFVFSLDTSVSTAYLQISSLKAEDTAVYYCARDLMVIAPKTMDYWGQGTTVTVSSASTKGPSVFPLAPSSKSTSGGTAALGCLVKDYFPEPVTVSWNSGALTSGVHTFPAVLQSSGLYSLSSVVTVPSSSLGTQTYICNVNHKPSNTKVDKKVEPKSC chain 3: DIVMTQTPLSLPVTPGEPASISCRSSKSLLYSNAITYLYWYLQKPGQSPQLLIYQMSNLAPGVPDRFSSSGSGTDFTLKISRVEAEDVGVYYCAQNLELPFTFGQGTKLEIKRTVAAPSVFIFPPSDEQLKSGTASVVCLLNNFYPREAKVQWKVDNALQSGNSQESVTEQDSKDSTYSLSSTLTLSKADYEKHKVYACEVTHQGLSSPVTKSFNRGEC",IC50 (read off the curve),[12],~0.8 nM
same,Kd,[13],0.587 nM
same,koff,[13],0.000276 s⁻¹
same,kon,[13],470000 M⁻¹ s⁻¹
same,Kd,[14],0.255 nM
same,koff,[14],0.000158 s⁻¹
same,kon,[14],620000 M⁻¹ s⁻¹
same,EC50 (read off the curve),[15],~1 nM
same,Kd,[16],5.13 nM
same,koff,[16],0.0004 s⁻¹
same,kon,[16],78000 M⁻¹ s⁻¹
"HuEM0005-86-64 (antibody, human IgG1, kappa, L234A L235A, V domains shown, Humanized anti-PD-L1; same as HuEM0005-86-21 except Q1E and C82aS (Kabat) in VH; also called parental anti-PD-L1 monoclonal antibody; parental PD-L1 antibody) VH: EVQLVQSGSELKKPGASVKVSCKASGYTFTTYGINWVRQAPGQGLEWMGYIYIGNAYTEYNEKFKGRFVFSLDTSVSTAYLQISSLKAEDTAVYYCARDLMVIAPKTMDYWGQGTTVTVSS VL: DIQMTQSPSSVSASVGDRVTITCKASQDVGTAVAWYQQKPGKAPKLLIYWASTRHTGVPSRFSGSGSGTDFTLTISSLQPEDFATYYCQQYSSYPYTFGGGTKVEIKR",IC50 (read off the curve),[12],~0.8 nM
same,EC50 (read off the curve),[15],~0.8 nM
